Data published in article PMC6056610.

Experiments:
[1] = molecular target: BG505 NFL I559P (HIV-1 BG505 (clade A)); assay: SEC; Superdex 200 16/60 or 10/300 GL after lectin-affinity chromatography; also after negative selection or rEK cleavage where told
[2] = molecular target: 16055 NFL I559P (HIV-1 16055 (clade C)); assay: as above
[3] = molecular target: BG505 NFL Q563P (HIV-1 BG505 (clade A)); assay: as above
[4] = molecular target: 16055 NFL L555P (HIV-1 16055 (clade C)); assay: negative stain electron microscopy; 2D class averages (RELION) of purified trimers, ~0.01 mg/mL, 0.7% uranyl formate
[5] = molecular target: 16055 NFL L555P (HIV-1 16055 (clade C)); assay: SEC; Superdex 200 16/60 or 10/300 GL after lectin-affinity chromatography; also after negative selection or rEK cleavage where told
[6] = molecular target: 16055 NFL Q563P (HIV-1 16055 (clade C)); assay: negative stain electron microscopy; 2D class averages (RELION) of purified trimers, ~0.01 mg/mL, 0.7% uranyl formate
[7] = molecular target: 16055 NFL Q563P (HIV-1 16055 (clade C)); assay: SEC; Superdex 200 16/60 or 10/300 GL after lectin-affinity chromatography; also after negative selection or rEK cleavage where told
[8] = molecular target: BG505 NFL S553P (HIV-1 BG505 (clade A)); assay: as above
[9] = molecular target: BG505 NFL L555P (HIV-1 BG505 (clade A)); assay: negative stain electron microscopy; 2D class averages (RELION) of purified trimers, ~0.01 mg/mL, 0.7% uranyl formate
[10] = molecular target: BG505 NFL L555P (HIV-1 BG505 (clade A)); assay: SEC; Superdex 200 16/60 or 10/300 GL after lectin-affinity chromatography; also after negative selection or rEK cleavage where told
[11] = molecular target: 16055 NFL N554P (HIV-1 16055 (clade C)); assay: as above
[12] = molecular target: 16055 NFL S553P (HIV-1 16055 (clade C)); assay: as above
[13] = molecular target: BG505 NFL Q562P (HIV-1 BG505 (clade A)); assay: as above
[14] = molecular target: 16055 NFL Q562P (HIV-1 16055 (clade C)); assay: negative stain electron microscopy; 2D class averages (RELION) of purified trimers, ~0.01 mg/mL, 0.7% uranyl formate
[15] = molecular target: 16055 NFL Q562P (HIV-1 16055 (clade C)); assay: SEC; Superdex 200 16/60 or 10/300 GL after lectin-affinity chromatography; also after negative selection or rEK cleavage where told
[16] = molecular target: BG505 NFL N554P (HIV-1 BG505 (clade A)); assay: as above

## BG505 NFL I559P (domain or fragment)
[1]
  stoichiometry N: 3

## 16055 NFL I559P (domain or fragment)
[2]
  stoichiometry N: 3

## BG505 NFL Q563P (domain or fragment)
[3]
  stoichiometry N: 3

## 16055 NFL L555P (domain or fragment)
[4]
  stoichiometry N: 3
[5]
  stoichiometry N: 3

## 16055 NFL Q563P (domain or fragment)
[6]
  stoichiometry N: 3
[7]
  stoichiometry N: 3

## BG505 NFL S553P (domain or fragment)
[8]
  stoichiometry N: 3

## BG505 NFL L555P (domain or fragment)
[9]
  stoichiometry N: 3
[10]
  stoichiometry N: 3

## 16055 NFL N554P (domain or fragment)
[11]
  stoichiometry N: 3

## 16055 NFL S553P (domain or fragment)
[12]
  stoichiometry N: 3

## BG505 NFL Q562P (domain or fragment)
[13]
  stoichiometry N: 3

## 16055 NFL Q562P (domain or fragment)
[14]
  stoichiometry N: 3
[15]
  stoichiometry N: 3

## BG505 NFL N554P (domain or fragment)
[16]
  stoichiometry N: 3
